This passage reports binding result and OD450 results from patent publication CN115850497A (SHAANXI MAI YUAN BIOTECHNOLOGY CO LTD, dated 2023).

Assay [1] deals with T1, YKL-40-6his expressed from pcDNA3.1 in transfected 293T cells (human, UniProt P36222 22-383).
T1 construct: whole, on cells; also called YKL-40(YKL-40-6his); not shown: 6his tag
Description: CBA, immunofluorescence of hybridoma supernatant on transfected fixed 293T cells.

For assay [2], the target named is YKL-40-strep (YKL-40 protein expressed from pGEX 4t-1 in E. coli BL21(DE3)) (human) (UniProt P36222). Description: ELISA, uncloned hybridoma supernatant (plate 10, well F1) on coated YKL-40, 1st screen.
Assay [3] has the same target. Description: ELISA, supernatant of subclone 10F1-G8-D9 on coated YKL-40, 3rd screen.
The target of assay [4] is T2, Q YKL-40-293-310-6his (YKL-40 construct lacking residues 293-310) (human, UniProt P36222 22-383).
T2 construct: also called 缺失氨基酸区间293-310组; not shown: 6his tag
Put plainly: immunofluorescence on transfected, acetone-fixed 293T cells.

Assay [5] deals with T1, YKL-40-6his expressed from pcDNA3.1 in …. Description: immunofluorescence of 293T supernatant on transfected fixed 293T cells.

T1 sequence (P36222 22-383): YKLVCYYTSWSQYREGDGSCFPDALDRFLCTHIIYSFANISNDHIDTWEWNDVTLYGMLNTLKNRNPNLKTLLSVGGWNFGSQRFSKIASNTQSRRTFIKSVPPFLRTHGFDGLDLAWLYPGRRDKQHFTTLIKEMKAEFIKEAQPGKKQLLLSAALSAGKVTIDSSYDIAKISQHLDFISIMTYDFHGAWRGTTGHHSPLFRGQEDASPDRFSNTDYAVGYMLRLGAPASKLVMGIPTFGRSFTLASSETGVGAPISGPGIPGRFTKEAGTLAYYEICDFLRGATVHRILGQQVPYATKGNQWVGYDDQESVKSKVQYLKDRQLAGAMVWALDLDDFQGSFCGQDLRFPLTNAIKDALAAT
T2 sequence (P36222 other isoform, or with tags, fused parts or gaps limits assumed): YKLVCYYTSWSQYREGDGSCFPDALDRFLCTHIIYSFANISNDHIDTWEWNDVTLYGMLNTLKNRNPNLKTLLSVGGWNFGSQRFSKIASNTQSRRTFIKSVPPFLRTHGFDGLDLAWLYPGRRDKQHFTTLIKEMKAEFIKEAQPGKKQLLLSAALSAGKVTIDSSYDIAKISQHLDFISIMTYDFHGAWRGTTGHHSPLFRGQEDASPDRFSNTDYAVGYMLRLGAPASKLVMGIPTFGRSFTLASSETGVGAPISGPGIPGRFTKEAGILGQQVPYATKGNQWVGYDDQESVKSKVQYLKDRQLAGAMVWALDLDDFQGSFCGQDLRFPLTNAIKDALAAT

B1: 单克隆抗体10F1 (hybridoma-derived, clone 10F1-G8-D9) (antibody, V domains shown)
VH: EVQLQESGPSLVKPSQTLSLSCSVTGDSITSGYWNWIRKFPGNKLEYMGFISYSGNTYYNPSLKSRISITRDTSKNQYFLQLNSVTTEDTATYYCVRKGDYDGAWFAYWGQGTLVTVSA
VL: DIQMTQSPASLSASVGETVTITCRASGNIHNYLAWYQQKQGKSPQLLVYNAKTLADGVPSRFSGSGSGTQYSLKINSLQPEDFGSYYCQHFWSTPLTFGAGTKLELK
notes: Mouse hybridoma antibody; Tested as hybridoma culture supernatant; also called YKL-40单克隆抗体
As to B1, the binding result in assay [1] is “binds”. For the same molecule, the OD450 in assay [2] came to 0.905; in assay [3] it was 1.14.

B2: 重组单克隆抗体10F1 (expressed from 10F1m2a + 10F1mk in 293T cells) (antibody, V domains shown)
VH: EVQLQESGPSLVKPSQTLSLSCSVTGDSITSGYWNWIRKFPGNKLEYMGFISYSGNTYYNPSLKSRISITRDTSKNQYFLQLNSVTTEDTATYYCVRKGDYDGAWFAYWGQGTLVTVSA
VL: DIQMTQSPASLSASVGETVTITCRASGNIHNYLAWYQQKQGKSPQLLVYNAKTLADGVPSRFSGSGSGTQYSLKINSLQPEDFGSYYCQHFWSTPLTFGAGTKLELK
notes: also called 重组10F1单克隆抗体
Regarding B2, the binding result in assay [4] is “no binding”; in assay [5], “binds”.
